Experimental data taken from the supplement of paper PMC12042874.
± gives the uncertainty stated by the source.

Experiment: amyloid nucleation score (Sup35N fusion, yeast selection) (log enrichment); library NNK2; higher = more nucleation; inactive = no reads after selection
How it was run: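 Sup35N was fused to peptides of 20 random codons and expressed in psi-negative yeast, which were induced with 100 μM copper sulfate for 24 hours and then grown on medium lacking adenine and uracil for 7 days at 30°C. Plasmid inserts from input and output were sequenced on Illumina. The nucleation score is the DiMSum log enrichment of output over input reads, centred on the mode score of non-aggregating sequences. Sequences with under 100 input reads were left out, and random libraries had three technical output replicates.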

Substance	amyloid nucleation score
KGIDKPIEGPSSKHLRFNCY	0.071 ± 0.65
KGIYIFRHLCGMDVNMGPMD	-0.764 ± 0.64
KGKTLLYSAKHIVFNR	0.482 ± 0.3
KGSIRCPRVFHQFRFLMG	-0.302 ± 0.74
KGSSSWTLPVYSLELSLV	-0.731 ± 0.79
KGVCRNMAGGKYANMRYGGV	5.09 ± 0.051
KHSWSIALV	0.239 ± 0.65
KICWYQFKANMASQ	4.41 ± 0.086
KIKYYEAIDGACNSGWFDLG	2.92 ± 0.057
KILNDWADMKSRLMGRLLGE	0.65 ± 0.42
KIRFIPTPKYHEIYMNAAIG	-1.7 ± 0.75
KIRRPFEMRGSVRDRGCIVR	0.938 ± 0.34
KIVLGYCVLKITEQELMLWV	inactive
KKACSLFTRGFGRYRNTYEV	inactive
KKHIWGCMRYKMLTL	-0.393 ± 1.1
KKLKRRRVFVCEFTKEGIRG	-0.067 ± 1.1
KKLYFWINAHNRELTLKTWV	0.226 ± 0.54
KKRLCDTSTIFQINNLHRMM	-1.32 ± 0.76
KKSYFTSLTLLFMTPFSLSY	inactive
KLANYHLARDSFMVRKHRKG	0.602 ± 0.57
KLAPLNKGSFA	-0.211 ± 0.63
KLFCTKVNIRRTSYSVTSIY	inactive
KLGCYVS	3.23 ± 0.088
KLLFLLVVVLADQMSCLGTS	1.1 ± 0.36
KLPMRNFRDVCEADLHPVK	1.11 ± 0.61

Substance	amyloid nucleation score
KLPYVEIPVVLTSLSYLGV	inactive
KLSNLSHDSYMLENALFALT	2.52 ± 0.063
KLTFSCGGLGGNLYVWL	7.999 ± 0.042
KLTPYRISKMPSWLSA	inactive
KLVVLCFLSVIVWVNGQR	4.67 ± 0.07
KLWSSARFIWLSNHHLHGDC	1.01 ± 0.57
KLWTISVDHPGII	-1.45 ± 1
KLYVAIMNSWILGKVGSYNG	6.214 ± 0.034
KMDFAFEA	-0.202 ± 0.8
KMEMRGCRMVTNMYC	-0.06 ± 0.33
KMIVLK	0.449 ± 0.41
KMPGFLVCW	inactive
KMSMSFSWWE	3.51 ± 0.068
KMSPQ	inactive
KNDISHS	inactive
KNIAISSRVADAGFWL	2.31 ± 0.093
KNVLLKTLVHWLGRGMSAPG	0.165 ± 1
KPEVRVEMQCNYVAWYTDMI	-0.61 ± 0.37
KPGMRNNYFLAFGFYCTCTR	1.59 ± 0.21
KPGRYRDVIRFLSDLLECNG	inactive
KPNFIRLYRIKFNKLGLGIT	-0.855 ± 1
KRFAIPEHTLTTYRQLA	0.082 ± 0.42
KRFIESNIVIQSDLTSLRRK	-0.184 ± 1.1
KRMKRLVCGTRVDMYRGSLW	-0.222 ± 0.33
KRTWFERLWSSSNRVLGCLC	4.27 ± 0.051

Substance	amyloid nucleation score
KRWCRGSE	0.229 ± 0.24
KSASCKPIMSYPKVLPS	0.208 ± 0.8
KSHAPFVLMCRIGVGSKCGK	3.81 ± 0.09
KSIAGNC	-1.48 ± 0.78
KSIVNL	0.465 ± 0.41
KSKLRCTFYSDAL	-0.219 ± 0.27
KSLLWHLQLLAKT	0.174 ± 0.63
KSMLLMIMSSFGSDIWHITS	-0.337 ± 1.1
KSRIDSESGGGQSFS	-0.805 ± 0.63
KSRNYIFSGYELVASPSSVK	inactive
KSVKIVSSAMKGWIHSTYSR	-0.316 ± 0.28
KSVYLSIGDILAFFSIVLLY	inactive
KSWHPRFQSDMKFHLFCLVV	-0.19 ± 0.56
KTKVL	0.348 ± 0.65
KTLWPGTWGGLITRVWWYTR	0.471 ± 0.18
KTPGSHVGLWSMPGRSYPSA	0.401 ± 0.45
KTRHKVLRKDL	-1.64 ± 0.54
KVAFLLRVGAYFDSWWHRRV	0.166 ± 0.39
KVALINYSLPMYFSVVTGLY	2.97 ± 0.071
KVALVHAGLKNFWRSSLWRL	1.11 ± 0.41
KVARGVCYCRFSL	inactive
KVFNSLASYSSIDLWCVVAG	inactive
KVGNGRDCIMLTVSCA	0.748 ± 0.23
KVKSWCTGLLGA	0.075 ± 0.76
KVLATMGDIGVVLSVMLVPV	1.33 ± 0.3

Substance	amyloid nucleation score
KVLCWLRVRYLKGLGQGSAC	0.358 ± 0.31
KVLVRHLRCAISPSF	0.256 ± 1
KVTSMHVFIESWGV	0.082 ± 0.79
KVVIYGCSS	-0.183 ± 0.65
KWCPLFKGSIGFSFLVHTMK	-1.26 ± 1.1
KWITVYETVNCMSGWFIQDL	6.622 ± 0.033
KWVVKMDVGCVPSQTRRGSW	1.05 ± 0.4
KYCMRDDSSSLMYLWGCTRG	-0.168 ± 0.29
KYFRICRVYLNTLLPLVTLV	inactive
KYSAQIL	0.172 ± 0.33
KYSCTLVPFLLARFDLGSWG	-0.112 ± 0.34
KYSVMLALLEPIRWTWLIQF	0.323 ± 0.62
KYTGNFGAVSL	0.22 ± 0.65
KYVGSWITTDVSFECTVI	-0.46 ± 1
LACIPGGKVNSPLGWHGFRD	0.057 ± 1.1
LADQSYKPAWLFPGSTSVLV	0.078 ± 0.74
LADTGA	0.108 ± 0.42
LAFPCFRVSGYESYGFVRKL	0.436 ± 0.31
LAFTFRSTRRTTSHSEVSSS	1.38 ± 0.43
LAGLYYVGVVENGMDMQDRK	-0.329 ± 0.29
LAHGG	3.16 ± 0.095
LAHVVNIVCFNF	7.836 ± 0.026
LAKADPWHLKMLFSAMLRQD	0.332 ± 0.26
LALSWRNDSYNLKNVLRLLG	-1.16 ± 0.28
LANFGIIVWCCTCFYDD	8.268 ± 0.039

Substance	amyloid nucleation score
LANLTSWSILMAKRRLRLTL	1.06 ± 0.33
LARSLSVNQYKPNLLFVGCD	-1.52 ± 1.1
LASAFG	-0.792 ± 0.79
LASFFCFGIINTAC	-0.019 ± 0.17
LASLSDFPFYLTWWS	-0.157 ± 0.45
LASTDTWHCVGGEFHKSA	-0.571 ± 0.28
LAVLGIYDTLLYCHTVLYEI	-0.302 ± 0.36
LAWSVLNMFRKVAFN	0.089 ± 1.1
LAYIARR	-0.035 ± 0.76
LAYLYTCLLLWSGSCNMTQV	inactive
LCCGSLDIYWFVFFF	1.63 ± 0.25
LCCRCIKVIAALKLNIENHQ	3.65 ± 0.095
LCDPLLVKNCRLRLTVLWGM	-0.057 ± 0.63
LCGLSTLLFFKMDV	0.716 ± 0.6
LCIYFICSGLVRRLEWVG	-0.871 ± 0.3
LCLVQLSDSCNQ	7.917 ± 0.055
LCNGGWIIRRADVSGVTNVE	-0.09 ± 0.24
LCNYLFSFEQMRNN	-0.124 ± 0.42
LCRDCPNRVQLCQLL	-0.684 ± 0.54
LCSSVLGGNRETAECFRFDQ	-0.67 ± 0.34
LCSTG	0.815 ± 0.53
LCTGTCDTSAHVSSIYKFRD	-0.712 ± 1.1
LCVSAVLKLVGNLWDDEREC	-0.091 ± 0.79
LCWCWKSWHNARRWTSWRMF	0.13 ± 0.56
LCWPIFNFVFVSNPMLKLRL	inactive

Substance	amyloid nucleation score
LCYSFYPQSVKSFEFPNYFY	inactive
LDDSYPCFASIITI	1.01 ± 0.41
LDIYLLDMLWPLCAVLSNIG	-0.541 ± 0.38
LDNACSQGGGDFRLSLS	-0.773 ± 0.55
LDTARVNGDSYWSL	3.57 ± 0.11
LDTHRPPYQDRVWLTRSANT	1.79 ± 0.24
LDTVPTWFYQVMWGYDWVLK	2.81 ± 0.11
LDWHAEHKGSCSFPDNEMLS	0.394 ± 0.56
LELHMGNLSSSTAYWLRRYS	-0.426 ± 0.48
LFADGFGSRINDCNTVSMF	0.881 ± 0.47
LFALLK	-0.005 ± 0.54
LFARWTFDNFSLRVVLQTRI	-0.861 ± 0.25
LFCVRSRLGVGCYRIWG	5.364 ± 0.046
LFDGASMSRRIVMWDMGWWG	4.54 ± 0.046
LFDLDSESRMTPQGGLRNAT	-0.665 ± 0.54
LFEAWSIYIYFASLKGTAGG	-1.26 ± 1.1
LFEMP	0.728 ± 0.74
LFFALSMCSIF	6.348 ± 0.032
LFGFLTTRVPWIFSWMVPTA	-0.003 ± 0.44
LFGYGQEDGQWCGDEFETVK	0.769 ± 0.26
LFHCLSELLVGSSNSRFVCE	0.456 ± 0.42
LFLRAHILGTVTCIRDFAPG	1.14 ± 0.18
LFLSLKYPLSYYASTVDNLA	0.6 ± 0.74
LFMLGMSAQLVFAFSLLGGI	2.62 ± 0.078
LFMNRHVYVLQVVEMYKRQT	-1.07 ± 1.1

Substance	amyloid nucleation score
LFRCIKDMAY	0.202 ± 0.51
LFRQEAMIPL	0.594 ± 0.66
LFRWM	3.92 ± 0.06
LFSHFYSYDY	-0.317 ± 1.1
LFSHL	-1.4 ± 0.54
LFSKDVSRTLGPACFICEGT	2.78 ± 0.072
LFVDKMCERDFYFVSSHRYR	0.306 ± 0.8
LFVRAFEPSGDHLCYQYVCL	-0.566 ± 0.38
LFWFIYGSYRTVRACGRYSN	0.516 ± 0.64
LGIASLQNGSGIGAWQAY	0.04 ± 0.76
LGIVHGNNY	-1.14 ± 0.76
LGLLFAINTVLSSQLR	7.703 ± 0.076
LGMSGCVCSYVYLRGFGLIL	-0.658 ± 0.37
LGPEYTWQI	0.548 ± 0.42
LGQSCTYQCQQLCSLSHNRV	-0.214 ± 1.1
LGQVTDLSILCSSDQSLMVC	-0.075 ± 0.26
LGRCY	2.72 ± 0.062
LGRQWFRIARGG	0.654 ± 0.32
LGTEAEWCVGLMCSVKRYQM	4.58 ± 0.068
LGYFTLSFS	0.627 ± 0.81
LGYLIPNDEYFILWVIVCWN	-0.024 ± 1
LHDLDWYSGILIQFDSDMRW	1.37 ± 0.15
